Data set [1] is described as follows: total lysate immunoblot, anti-GFP. As to conditions: glycan lost; control: SP-VSVG WT. For orientation: A western blot detects proteins with antibodies after separation by electrophoresis.
Data set [2] is described as follows: cell surface ELISA, anti-hGLP-1R, unpermeabilised cells. The conditions noted are these: glycan lost; control: SP-VSVG WT, untreated. For orientation: ELISA stands for enzyme-linked immunosorbent assay.
A short description of data set [3]: confocal immunofluorescence, GFP and surface anti-hGLP-1R. As to conditions: glycan lost; control: SP-VSVG WT, untreated.

Two proteins from publication PMC4344312 can be followed below.

B1: human glucagon like peptide-1 receptor (hGLP-1R): N63, 82, 115L (protein)
parent chain: MAGAPGPLRLALLLLGMVGRAGPRPQGATVSLWETVQKWREYRRQCQRSLTEDPPPATDLFCNRTFDEYACWPDGEPGSFVNVSCPWYLPWASSVPQGHVYRFCTAEGLWLQKDNSSLPWRDLSECEESKRGERSSPEEQLLFLYIIYTVGYALSFSALVIASAILLGFRHLHCTRNYIHLNLFASFILRALSVFIKDAALKWMYSTAAQQHQWDGLLSYQDSLSCRLVFLLMQYCVAANYYWLLVEGVYLYTLLAFSVLSEQWIFRLYVSIGWGVPLLFVVPWGIVKYLYEDEGCWTRNSNMNYWLIIRLPILFAIGVNFLIFVRVICIVVSKLKANLMCKTDIKCRLAKSTLTLIPLLGTHEVIFAFVMDEHARGTLRFIKLFTELSFTSFQGLMVAILYCFVNNEVQLEFRKSWERWRLEHLHIQRDSSMKPLKCPTSSLSSGATAGSSMYTATCQASCS
As for B1, the expression_or_secretion entry in data set [1] is given as “no change”. The “localisation_or_trafficking, percent_of_wt” value in data set [2] is reported as “abolishes”. Further, in data set [3], the localisation_or_trafficking entry is “abolishes”.

B2: human glucagon like peptide-1 receptor (hGLP-1R): tunicamycin (protein)
parent chain: B1 parent chain
Turning to B2, the “localisation_or_trafficking, percent_of_wt” value in data set [2] is “abolishes”. Besides, the localisation_or_trafficking result in data set [3] is listed as “abolishes”.
